Laboratory results taken from PMC7552008.

Experiments:
[1] = molecular target: NS1 RBD H5N1 (Influenza A virus (H5N1; allele A)) (UniProt Q5H7J4); assay: competition EMSA
[2] = molecular target: T1, NS1 RBD H7N1 (Influenza A virus (avian H7N1; allele B)) (UniProt Q1PST0); assay: competition EMSA
T1 sequence: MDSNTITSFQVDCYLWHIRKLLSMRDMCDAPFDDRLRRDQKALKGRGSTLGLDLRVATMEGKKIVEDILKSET

[3] = molecular target: NS1 RBD H3N2 (Influenza A virus (H3N2)) (UniProt I6T1Z2); assay: EMSA
[4] = molecular target: NS1 RBD H5N1 (Influenza A virus (H5N1; allele A)) (UniProt Q5H7J4); assay: EMSA
[5] = test system: NS1 RBD pdmH1N1 (Influenza A virus (pandemic H1N1)); assay: EMSA
[6] = molecular target: wild type H7N1 NS1 RBD (RNA-binding domain of influenza A virus non-structural protein NS1, residues 1-73) (influenza A virus (avian H7N1)); assay: crystal structure

Substance	IC50 [1] [nM]	IC50 [2] [nM]	also measured
AGACAGCAUUAUGCUGUCUUU / AGACAGCAUUAUGCUGUCUUU [ZKO]	90		
CGCCUGUGUAGAGGUUACAGAGAUGUAACCUCACCACAGGCG [shDM05-GAGA]	100		
GGUAACAACUCGUCAUAGGUCACUUGAUUGAAGUAUGACGGGCUGUUACC [DM03-midi]	1.8	2.8	
GGUAACCACAUGAGUUACAGCAAAAGACCUGUGUAACUCAUGCUGUUACC [DM01-midi]	2.2	2.7	
GGUAACUGUAGAGGAUGGAGAGAUCCAUCCUCUACAGUUACC [shDM06-GAGA]	1.1	0.85	
GGUAACUGUAGAGGUUACAGAGAUGUAACCUCACCAGUUACC [shDM03-GAGA]	1.2	0.64	
GGUAACUGUAGAGGUUACAGAGAUGUAACCUCUACAGUUACC [shDM02-GAGA]	0.41	0.24	
GGUAACUGUUACAGUUACC / GGUAACUGUUACAGUUACC [AWFC01]	1		Kd [3]: 3.7 nM; Kd [4]: 0.98 nM; Kd [5]: 2.05 nM
wild type H7N1 NS1 RBD (RNA-binding domain of influenza A virus non-structural protein NS1, residues 1-73) (domain or fragment)			stoichiometry N [6]: 2
